Numbering of substitutions follows the chain as printed.

B1: CE115HA000/GLS3000 H34M (antibody, IgG1, name in Kabat numbering, V domains shown)
VH: QVQLVESGGGVVQPGRSLRLSCAASGFTFSNAWMHWVRQAPGKGLEWVAQIKAKSNNYATYYAESVKGRFTISRDDSKNSLYLQMNSLKTEDTAVYYCRYVHYGAYYGVDAWGQGTTVTVSS
VL: DIVMTQSPLSLPVTPGEPASISCRSSQSLVHSNRNTYLMWYQQKPGQAPRLLIYKVSNRFSGVPDRFSGSGSGTDFTLKISRVEAEDVGVYYCGQGTQVPYTFGQGTKLEIK
notes: one-arm IgG1
B2: CE115HA000/GLS3000 H34P (antibody, IgG1, name in Kabat numbering, V domains shown)
VH: B1 VH
VL: B1 VL with M39P
notes: one-arm IgG1
B3: CE115HA000/GLS3000 H34Y (antibody, IgG1, name in Kabat numbering, V domains shown)
VH: B1 VH
VL: B1 VL with M39Y
notes: one-arm IgG1
B4: CE115HA000/GLS3000 H34N (antibody, IgG1, name in Kabat numbering, V domains shown)
VH: B1 VH
VL: B1 VL with M39N
notes: one-arm IgG1
B5: CE115HA000/GLS3000 H34T (antibody, IgG1, name in Kabat numbering, V domains shown)
VH: B1 VH
VL: B1 VL with M39T
notes: one-arm IgG1
B6: CE115HA000/GLS3000 K50D (antibody, IgG1, name in Kabat numbering, V domains shown)
VH: B1 VH
VL: B1 VL with M39H, K55D
notes: one-arm IgG1
B7: CE115HA000/GLS3000 K50G (antibody, IgG1, name in Kabat numbering, V domains shown)
VH: B1 VH
VL: B1 VL with M39H, K55G
notes: one-arm IgG1
B8: CE115HA000/GLS3000 K50P (antibody, IgG1, name in Kabat numbering, V domains shown)
VH: B1 VH
VL: B1 VL with M39H, K55P
notes: one-arm IgG1
B9: CE115HA000/GLS3000 K50L (antibody, IgG1, name in Kabat numbering, V domains shown)
VH: B1 VH
VL: B1 VL with M39H, K55L
notes: one-arm IgG1
B10: CE115HA000/GLS3000 K50R (antibody, IgG1, name in Kabat numbering, V domains shown)
VH: B1 VH
VL: B1 VL with M39H, K55R
notes: one-arm IgG1
B11: CE115HA000/GLS3000 K50A (antibody, IgG1, name in Kabat numbering, V domains shown)
VH: B1 VH
VL: B1 VL with M39H, K55A
notes: one-arm IgG1
B12: CE115HA000/GLS3000 K50Q (antibody, IgG1, name in Kabat numbering, V domains shown)
VH: B1 VH
VL: B1 VL with M39H, K55Q
notes: one-arm IgG1
B13: CE115HA000/GLS3000 H34W (antibody, IgG1, name in Kabat numbering, V domains shown)
VH: B1 VH
VL: B1 VL with M39W
notes: one-arm IgG1
B14: CE115HA000/GLS3000 H34S (antibody, IgG1, name in Kabat numbering, V domains shown)
VH: B1 VH
VL: B1 VL with M39S
notes: one-arm IgG1
B15: CE115HA000/GLS3000 H34V (antibody, IgG1, name in Kabat numbering, V domains shown)
VH: B1 VH
VL: B1 VL with M39V
notes: one-arm IgG1
B16: CE115HA000/GLS3000 H34Q (antibody, IgG1, name in Kabat numbering, V domains shown)
VH: B1 VH
VL: B1 VL with M39Q
notes: one-arm IgG1
B17: CE115HA000/GLS3000 K50E (antibody, IgG1, name in Kabat numbering, V domains shown)
VH: B1 VH
VL: B1 VL with M39H, K55E
notes: one-arm IgG1

In this assay the target is T1, CD3 epsilon homodimer protein (UniProt P07766 23-126).
T1 construct: also called CD3 (CD3 epsilon)
T1 sequence (P07766 23-126): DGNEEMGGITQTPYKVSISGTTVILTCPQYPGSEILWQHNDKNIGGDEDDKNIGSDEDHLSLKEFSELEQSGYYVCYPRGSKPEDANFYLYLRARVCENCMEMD
The experiment in a line: SPR, antibody over immobilised CD3e homodimer.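 Note: SPR at 25 °C with CD3 epsilon homodimer amine-coupled to a CM4 sensor chip and antibody flowed over as analyte in HBS-EP+ running buffer.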
Method: An appropriate amount of CD3 epsilon homodimer protein was immobilized onto Sensor chip CM4 (GE Healthcare Japan Corp.) by the amine coupling method. Then, the antibody having an appropriate concentration was injected thereto as an analyte and allowed to interact with the CD3 epsilon homodimer protein on the sensor chip. Then, the sensor chip was regenerated by the injection of 10 mmol/L glycine-HCl (pH 1.5). The assay was conducted at 25 degrees C., and HBS-EP+(GE Healthcare Japan Corp.) was used as a running buffer. […] Each parameter was calculated using Biacore T200 Evaluation Software (GE Healthcare Japan Corp.).
On to B1, for which the “KD ratio to GLS3000” value was 3.16. To B2 belongs 1.22; to B3, 2.44. Take B4: the “KD ratio to GLS3000” value was found to be 2.84. For B5 the value was 1.1; for B6, 114; for B7, 42.4. To B8 belongs 27.7; to B9, 36.4. For B10 the value was 1.83; for B11, 59.5. With B12, the “KD ratio to GLS3000” value was determined as 8.13. For B13, the “KD ratio to GLS3000” value was 8.45. Turning to B14, the “KD ratio to GLS3000” value amounted to 1.24. B15: the “KD ratio to GLS3000” value stood at 1.04. For B16 the value was 4.6; for B17, 57.2.

For the origin of these results see patent US20210388087A1 (Chugai, published 2021).
